The record followed here is patent US12214008B2, “Protein interfaces” (SyntheX, Inc., priority 2016, dated 2025).

Common to all, as to format: binding
For one assay, the target named is T1, Rad51 (F86E; A89E) (Homo sapiens, UniProt Q06609, A89E/F86E).
T1 construct: expressed in transfected cells
T1 sequence (Q06609 1-339 F86E/A89E): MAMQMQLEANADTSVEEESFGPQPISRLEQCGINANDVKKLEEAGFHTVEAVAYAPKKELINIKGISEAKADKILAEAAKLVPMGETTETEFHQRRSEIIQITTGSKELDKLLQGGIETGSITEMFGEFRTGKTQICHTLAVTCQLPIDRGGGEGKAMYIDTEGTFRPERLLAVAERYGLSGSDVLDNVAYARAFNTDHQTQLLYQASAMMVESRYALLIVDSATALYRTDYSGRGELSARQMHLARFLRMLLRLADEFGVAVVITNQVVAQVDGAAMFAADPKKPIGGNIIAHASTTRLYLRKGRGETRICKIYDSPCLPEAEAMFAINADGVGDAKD
Kind of assay: Y2H assay, human RAD51 mutants. Further details: key: (+) denotes a successful interaction between the two Y2H baits; (−) denotes a lack of interaction. The method, then: (§1) The ability of peptides to bind human RAD51 with various mutations was then tested by Y2H assay. […] While mutations affecting BRCA2 binding had no effect on peptide binding, mutations that affected RAD51-AP1 binding did disrupt peptide binding. As these mutations were at residues 202, 205, and 206, they were consistent with the previous fusion data showing binding somewhere in the 190-218 region, and indicated the peptide SEQ ID NO.: 5 contacts at least residues 202, 205, and 206 of RAD51.

Another assay concerns the target T2, Rad51 (S208E; A209D) (Homo sapiens, UniProt Q06609, A209D/S208E).
T2 construct: expressed in transfected cells
T2 sequence (Q06609 1-339 S208E/A209D): T1 sequence (Q06609 1-339 F86E/A89E) with E86F, E89A, S208E, A209D
Briefly: Y2H assay, human RAD51 mutants. Further details: key: (+) denotes a successful interaction between the two Y2H baits; (−) denotes a lack of interaction. How it is done: as §1

The target of a further assay is T3, Rad51 (A190L; A192L) (Homo sapiens, UniProt Q06609, A190L/A192L).
T3 construct: expressed in transfected cells
T3 sequence (Q06609 1-339 A190L/A192L): T1 sequence (Q06609 1-339 F86E/A89E) with E86F, E89A, A190L, A192L
Kind of assay: Y2H assay, human RAD51 mutants. Details: key: (+) denotes a successful interaction between the two Y2H baits; (−) denotes a lack of interaction. How it is done:
as §1

Assay [1] has as its target T4, Rad51 (Q202R, Y205D, Q206A) (Homo sapiens, UniProt Q06609, Q202R/Q206A/Y205D).
T4 construct: expressed in transfected cells
T4 sequence (Q06609 1-339 Q202R/Y205D/Q206A): T1 sequence (Q06609 1-339 F86E/A89E) with E86F, E89A, Q202R, Y205D, Q206A
Kind of assay: Y2H assay, human RAD51 mutants. Further details: key: (+) denotes a successful interaction between the two Y2H baits; (−) denotes a lack of interaction. The method, then: as §1

Assay [2] addresses T5, Rad51 (S208L; A209E; M210A) (Homo sapiens, UniProt Q06609, A209E/M210A/S208L).
T5 construct: expressed in transfected cells
T5 sequence (Q06609 1-339 S208L/A209E/M210A): T1 sequence (Q06609 1-339 F86E/A89E) with E86F, E89A, S208L, A209E, M210A
Kind of assay: Y2H assay, human RAD51 mutants. Further details: key: (+) denotes a successful interaction between the two Y2H baits; (−) denotes a lack of interaction. The method, then:
as §1

The next assay concerns the target T6, H.sapiens Rad51 (Homo sapiens, UniProt Q06609).
T6 construct: expressed in transfected cells
T6 sequence (Q06609 1-339): T1 sequence (Q06609 1-339 F86E/A89E) with E86F, E89A
Kind of assay: Y2H assay RAD51/SEQ ID NO.: 5 pair. Further details: key: cells having the interaction would survive (+); cells not having the interaction would die (−) on selective media (−ADE, −HIS). How it is done:
RAD51-binding peptides were tested for ability to bind RAD51 of several different species using a “conventional” Y2H assay, where interaction between the two-hybrid pair drove expression of ADE2 and HIS genes.

Changes are numbered by the printed parent chain.

With KRRRRRRRKRLGVRLRVSRML [SEQ ID NO.: 5], the “Y2H interaction with SEQ ID NO.: 5” value is “+” with Rad51 (F86E; A89E); “+” with Rad51 (S208E; A209D); “+” with Rad51 (A190L; A192L); “−” in assay [1]; “+” in assay [2]. In addition, in the assay with H.sapiens Rad51, the “Compound 5 Sequence Binding” value is listed as “+”.
